Data reported in IntAct's records for PubMed 19703395.

B1: Transposon Tn7 transposition protein TnsE (Escherichia coli), P05845 (parent)
chain: MVRLATFNDNVQVVHIGHLFRNSGHKEWRIFVWFNPMQERKWTRFTHLPLLSRAKVVNSTTKQINKADRVIEFEASDLQRAKIIDFPNLSSFASVRNKDGAQSSFIYEAETPYSKTRYHIPQLELARSLFLINSYFCRSCLSSTALQQEFDVQYEVERDHLEIRILPSSSFPKGALEQSAVVQLLVWLFSDQDVMDSYESIFRHYQQNREIKNGVESWCFSFDPPPMQGWKLHVKGRSSNEDKDYLVEEIVGLEINAMLPSTTAISHASFQEKEAGDGSTQHIAVSTESVVDDEHLQLDDEETANIDTDTRVIEAEPTWISFSRPSRIEKSRRARKSSQTILEKEEATTSENSNLVSTDEPHLGGVLAAADVGGKQDATNYNSIFANRFAAFDELLSILKTKFACRVLFEETLVLPKVGRSRLHLCKDGSPRVIKAVGVQRNGSEFVLLEVDASDGVKMLSTKVLSGVDSETWRNDFEKIRRGVVKSSLNWPNSLFDQLYGQDGHRGVNHPKGLGELQVSREDMEGWAERVVREQFTH

Variants of: B1
Settings: with dpo3b_ecoli dnaN

Row | Variant | effect of a mutation on the interaction
1 | L125A | decreasing interaction
2 | Q122A | decreasing interaction
3 | L129A | decreasing interaction

More lines, now with the values ahead:

Row | effect of a mutation on the interaction | Variant
4 | decreasing interaction | L123A
5 | decreasing interaction | L131A
6 | decreasing interaction | F130A
